Experimental findings from US20110172153A1 are described below.

The target in the assay is PTH receptor, R^0 and RG conformations (species not stated at the figure legends) (Homo sapiens (Human)) (UniProt Q03431). The experiment in a line: R0 binding affinity in vitro, table inset of FIG. 18; reference [E19],Mc-hPTH(1-34)OH.

Ends that are not written are not given here.

In turn, AVAEIQLMHQRAKWLNSMERVEALRKKLQDVHNF-OH [[A^23,E^19],Mc-hPTH(1-34)OH] displayed a fold reduction of binding affinity for R^0 against [E^19 Mc]PTH(1-34) of 10 fold.
